Experimental data from paper PMC3951675 (Journal of molecular biology, 2013).

Assays:
AUC = biological target: the molecule itself; assay: AUC
SEC = biological target: the molecule itself; assay: SEC

B1: isolated regulatory domain of tyrosine hydroxylase (RDTyrH, residues 1-159) (domain or fragment, rat, UniProt P04177 1-159, looked up)
chain: MPTPSAPSPQPKGFRRAVSEQDAKQAEAVTSPRFIGRRQSLIEDARKEREAAAAAAAAAVASSEPGNPLEAVVFEERDGNAVLNLLFSLRGTKPSSLSRAVKVFETFEAKIHHLETRPAQRPLAGSPHLEYFVRFEVPSGDLAALLSSVRRVSDDVRSA
stoichiometry N (AUC): 2

B2: regulatory domain of tyrosine hydroxylase lacking the first 64 residues (RDTyrH_(65-159)) (domain or fragment, rat, UniProt P04177 65-159, looked up)
chain: PGNPLEAVVFEERDGNAVLNLLFSLRGTKPSSLSRAVKVFETFEAKIHHLETRPAQRPLAGSPHLEYFVRFEVPSGDLAALLSSVRRVSDDVRSA
stoichiometry N (SEC): 2
